The results in this text go back to publication PMC5700975 (2017).

The chains are these.
B1: Myc3-iSH2-p110β (wild type) [bovine | human] / GST-Rab5 wild-type [canine] (parent complex)
chain 1: LYEDYTRTSQEIQMKRTAIEAFNETIKIFEEQCQTQERYSKEYIEKFKREGNETEIQRIMHNYEKLKSRISEIVDSRRRLEEDLKKQAAEYREIDKRMNSIKGGGGGGGMCFSFIMPPAMADILDIWAVDSQIASDGSIPVDFLLPTGIYIQLEVPREATISYIKQMLWKQVHNYPMFNLLMDIDSYMFACVNQTAVYEELEDETRRLCDVRPFLPVLKLVTRSCDPGEKLDSKIGVLIGKGLHEFDSLKDPEVNEFRRKMRKFSEEKILSLVGLSWMDWLKQTYPPEHEPSIPENLEDKLYGGKLIVAVHFENCQDVFSFQVSPNMNPIKVNELAIQKRLTIHGKEDEVSPYDYVLQVSGRVEYVFGDHPLIQFQYIRNCVMNRALPHFILVECCKIKKMYEQEMIAIEAAINRNSSNLPLPLPPKKTRIISHVWENNNPFQIVLVKGNKLNTEETVKVHVRAGLFHGTELLCKTIVSSEVSGKNDHIWNEPLEFDINICDLPRMARLCFAVYAVLDKVKTKKSTKTINPSKYQTIRKAGKVHYPVAWVNTMVFDFKGQLRTGDIILHSWSSFPDELEEMLNPMGTVQTNPYTENATALHVKFPENKKQPYYYPPFDKIIEKAAEIASSDSANVSSRGGKKFLPVLKEILDRDPLSQLCENEMDLIWTLRQDCREIFPQSLPKLLLSIKWNKLEDVAQLQALLQIWPKLPPREALELLDFNYPDQYVREYAVGCLRQMSDEELSQYLLQLVQVLKYEPFLDCALSRFLLERALGNRRIGQFLFWHLRSEVHIPAVSVQFGVILEAYCRGSVGHMKVLSKQVEALNKLKTLNSLIKLNAVKLNRAKGKEAMHTCLKQSAYREALSDLQSPLNPCVILSELYVEKCKYMDSKMKPLWLVYNNKVFGEDSVGVIFKNGDDLRQDMLTLQMLRLMDLLWKEAGLDLRMLPYGCLATGDRSGLIEVVSTSETIADIQLNSSNVAAAAAFNKDALLNWLKEYNSGDDLDRAIEEFTLSCAGYCVASYVLGIGDRHSDNIMVKKTGQLFHIDFGHILGNFKSKFGIKRERVPFILTYDFIHVIQQGKTGNTEKFGRFRQCCEDAYLILRRHGNLFITLFALMLTAGLPELTSVKDIQYLKDSLALGKSEEEALKQFKQKFDEALRESWTTKVNWMAHTVRKDYRS
chain 2: ANRGATRPNGPNTGNKICQFKLVLLGESAVGKSSLVLRFVKGQFHEFQESTIGAAFLTQTVCLDDTTVKFEIWDTAGQERYHSLAPMYYRGAQAAIVVYDITNEESFARAKNWVKELQRQASPNIVIALSGNKADLANKRAVDFQEAQSYADDNSLLFMETSAKTSMNVNEIFMAIAKKLPKNEPQNPGANSARGRGVDLTEPTQPTRSQCCSN

Variants of B1 are the subject of the first test. The experiment in a line: GST pull-down, anti-Myc immunoblot quantification; GST-Rab5 fusion proteins (10 µg) on glutathione Sepharose beads, GppCp-loaded; Myc-iSH2-p110β from transfected COS-1 lysates; parent: 100; read off a plot. (In general: Immunoblotting shows a protein as a band on a membrane.)
As to chain 2 Q43E, the percent of parent was approximately 115 % WT. Turning to chain 2 Y81A, the percent of parent is approximately 8 % WT. Turning to chain 2 R90E, the percent of parent is approximately 20 % WT. chain 2 Y88A: the percent of parent was approximately 15 % WT. The same measure, in the same setting: then chain 2 F56A, with approximately 24 % WT. As to chain 2 E46A, the percent of parent is approximately 72 % WT. As for chain 2 I52A, the percent of parent was approximately 7 % WT. chain 2 S83A: the percent of parent was approximately 112 % WT. The same measure, in the same setting: then chain 2 H82E, with approximately 12 % WT; and chain 2 W73A, with approximately 26 % WT. On to chain 2 H45A, for which the percent of parent is approximately 110 % WT. With chain 2 L84A, the percent of parent is approximately 16 % WT.

As for chain 2 R80E, the percent of parent was approximately 23 % WT.

In another test the parent is B1. The experiment in a line: GST pull-down, anti-Myc immunoblot quantification; GST-Rab5 loaded with GppCp; parent: 100; read off a plot.
With chain 1 Y353A, the percent of parent is approximately 7 % WT.

For chain 1 L341A, the percent of parent was approximately 117 % WT. Still for that read-out and setting: the figure for chain 1 D348R is approximately 190 % WT.
